Assay results taken from the DeepSol protein solubility set.

Experiment: soluble on expression in E. coli; label from the status in PepcDB or PDB records

Question: With “MTYILKTNQLTKVFKGKEVISSVNMHVKKGEIYGFLGPNGAGKTTIMKMITNLIKPTSGEIEIFGEKLTDTSYEVLKRMGTIIEYPIFYDKLTAKENLELHCEYMGYYDKNEIDHALHLVKLQGIDNKKVKDFSLGMKQRLGIARAIVTKPELLILDEPINGLDPIGIKELRDLFKMLCKEYGITLLVSSHILGEMELMADTIGVIQNGKLIKEVSMKSINGKQTEYIEITVPDVKRAAYILEDKLGIKNYKIMSGNMIRVYDTAVSQQAISKALIMNDVEIESINKKHSSLEEYFLNVMDGEGIHA” as the sequence, how does the “soluble on expression in E. coli” value read?
Answer: not soluble

Question: With “MTYQDRSGATAVVQSSYQLVLLTPAAIHGADPREKAEFRLSSLRGVWRYWWRTLQDEPDPEKLLAKEEEWFGGTRKMKQQSPIHLSMAGVMEGTKKENILPHRTSPTLVPALPAGGEVTVTLSVRKRHQERLAQYDWYFQYVLHLASFGQRSRRGFGAVQWIGHQWSNVGEYVESLRMVLEHIGVAGAFSFAERDCLVARRGDIQTQHPVLSAVWIGEGKESAAEVVKAFGKASHEANRYGSLGYMRGKAGKLSSTLWCTVRKIGNWYYPIVTEVRNHDPHYSEPRYEQDRNRFLEIVGVRI” as the sequence, how does the “soluble on expression in E. coli” value read?
Answer: not soluble

Question: For “MVAELAGQQDPGLGAFSCQEARRAWLDRHGNLDEAVEECVRTRRRKVQELQSLGFGPEEGSLQALFQHGGDVSRALTELQRQRLEPFRQRLWDSGPEPTPSWDGPDKQSLVRRLLAVYALPSWGRAELALSLLQETPRNYELGDVVEAVRHSQDRAFLRRLLAQECAVCGWALPHNRMQALTSCECTICPDCFRQHFTIALKEKHITDMVCPACGRPDLTDDTQLLSYFSTLDIQLRESLEPDAYALFHKKLTEGVLMRDPKFLWCAQCSFGFIYEREQLEATCPQCHQTFCVRCKRQWEEQHRGRSCEDFQNWKRMNDPEYQAQGLAMYLQENGIDCPKCKFSYALARGGCMHFHCTQCRHQFCSGCYNAFYAKNKCPEPNCRVKKSLHGHHPRDCLFYLRDWTALRLQKLLQDNNVMFNTEPPAGARAVPGGGCRVIEQKEVPNGLRDEACGKETPAGYAGLCQAHYKEYLVSLINAHSLDPATLYEVEELETATERYLHVRPQPLAGEDPPAYQARLLQKLTEEVPLGQSIPRRRK”, which “soluble on expression in E. coli” value is on record?
Answer: soluble

Question: With “MVAHQKADFKSKWAMVVTVNNLNDKKRADLREFSEWFIETLRLEGAFIGHYFNYEAAPVTIVETLPGNFDSCTNAYQKIHKEHPQVVLVVHILPQSQSNEYEWMKVLASRYGFVRQGLLYDNCANRFQNVETDQNSVFRNMCQWIYRSGTAIVRNEGNACGILHGKDPKPTFDKVLFNSEDIKDSVFKVLHAEEEPRGADQENMLKISGYPGMLNTFGIAQLLTPYRVNGITITGAQSAVVALENKFQVYQAVQDFNGKKLDRNHKLQVSSLVVSSPAVPLEWPSLKKSKKLVEQVGKPIRLSKVSS” as the sequence, how does the “soluble on expression in E. coli” value read?
Answer: not soluble

Question: Which “soluble on expression in E. coli” value does the source give for “MVAHSSVEGNQGIEDRQVSTEASSDVFQSQRSRPRQSTVAFQTHFKPFNYARDFKIISNTTSMLEESGFYWGPMTVEEAHLKLKKESVGTFLIRDSRQSDVFFTLSYKAQNGPVSIRINFKNSKFSLTGSKESFDSLFKLLEHYISSPKKGLIRPCRKEPVQSLQQLCRRQIMERCDGKDIDCIPVQPILKDFLHAFPHPL” here?
Answer: not soluble

Question: For “MVASESILQALQTVIDPNTGKDLVTTRAIRNLEVNGADVTFDAQLGYPAKSQIPALRRALIAAARGVAGVDNVSVNMQSVIETHAVPRGIALLPNVKNVIAVASGKGGVGKSTTAVNLALALAAEGARVGLLDADIYGPSQAQMMGIEGRPQSEDGKTMEPLENYGVQVMSIGFLVDADEAMIWRGPMAVQALEQLLRQTNWKNLDYLVIDMPPGTGDIHLTLSQKVPVTGAVIVTTPQDIALLDARKGVKMFEKVGVPIVGVVENMAVHVCSQCGHAEHIFGQGGGQRMAQDYGLAYLGALPLDINIRQQADGGRPSVVADPDGEVAGLYKDVARQVAVAVAAMGKDYSSKFSSISISRAPAGGAAALEHHHHHH”, which “soluble on expression in E. coli” value is on record?
Answer: soluble

Question: With “MVATAFCDNIGFFKSPTEKRCDKDYECSGTDLCGHYVCTPLSEFRKCPEDKRCGFEYSCMSGVCRYMSDFDAERRFSNFGPDMKCKDSRVCPIGLHCSNGNCV” as the sequence, how does the “soluble on expression in E. coli” value read?
Answer: not soluble

Question: For “MVAVKGLSEREVVADTVIWPIQFTVADNQLSSLFATVDQQTQLITQFLVEKGVDRAAISLSAPAVIDKKAQQYGEDRAEFRYLATQTLTVYSKQVDQVRKIISEIGQLGKQGVVFNQDPYNNRVEFSFTGLNAIKPDMIEEATKQAREVAQKFAKDSQSTLGKIKTASQGQFSITDRDNNTPYIKNVRVVTTVEYYLSDLEHHHHHH”, which “soluble on expression in E. coli” value is on record?
Answer: not soluble

Question: Which “soluble on expression in E. coli” value does the source give for “MVAYSPIIATYGNRAEQFLETDSDFAKYHAKLNKKLQHLRSRCHLVTKDTKKYSSKNKYGEINSEDYDNKTKLIGVLILLHAERDLALAETLKLRARQRGKLKKSEEKVLSTRLKKACKTADKLVNVTQNEQQWITRAQYLAFAKLVHSEYLINGKRFKRKDNAKISNNLALVFAALEHLKNLSLLAEEVVDNIVNKYQYSLKQYAGNLITTPEINNFIVERVQSDENKDDELVKLLLDNGFNMKKITTSTEDQKVTTNINWRSFNAKIIDAEVAQFLEQGLSIHPTQITQYTQRLSKLEKALDRHEFFIANHDDQDDIDEMVENSSENNQIILAYIKYNILLTSISRERDLFTHLWNQWLKLNTSLPSKLTKYKEMERIVKNLTKYLSDIMELPGVYSDDELLSQLDLCKLYFQLFLNTGCLSVLYQSKGRYMEALALYVDAYRRLENKLSEIESLDEILLPANLLSLNSVRSLQKRIENGGNSVITLAEYEKRNHGGSLGKYDLTVIEKLDSKKILPTDIQLKNLFPLKPKMLPIPSKPTLFDLAFNYITYDKQEPSASQVKDSVTETESISQTPISNEQTEGEPKKKRGFLGLFGR” here?
Answer: not soluble

Question: Which “soluble on expression in E. coli” value does the source give for “MVDFKMTKEGLVLLIKDYQNLEEVLNAISARITQMGGFFAKGDRISLMIENHNKHSQDIPRIVSHLRNLGLEVSQILVGSTVEGKENDLKVQSRTTVESTGKVIKRNIRSGQTVVHSGDVIVFGNVNKGAEILAGGSVVVFGKAQGNIRAGLNEGGQAVVAALDLQTSLIQIAGFITHSKGEENVPSIAHVKGNRIVIEPFDKVSFERSE” here?
Answer: soluble

Question: For “MVDSKKRPGKDLDRIDRNILNELQKDGRISNVELSKRVGLSPTPCLERVRRLERQGFIQGYTALLNPHYLDASLLVFVEITLNRGAPDVFEQFNAAVQKLEEIQECHLVSGDFDYLLKTRVPDMSAYRKLLGETLLRLPGVNDTRTYVVMEEVKQSNRLVIKTR”, which “soluble on expression in E. coli” value is on record?
Answer: not soluble

Question: Which “soluble on expression in E. coli” value does the source give for “MVEFSKESSTRVSVNSQRQISHVQKRELTKRKSVRFETQTVESTSEFVGKTNQEWTFVADCFNLDKETRSEREQELLSLCNFFDSNEKELELSDASDESDDSVPFELFAEQGMRIAWTQIVTSPSLSNLRLASILRFDTKKKIVSPFIEDEKSPQEFFLDDNEAVENAFKGVLPCTNSQKVSRSRRASKSEEENDFVTAKGSDFWSDVEF” here?
Answer: not soluble

Question: For “MVEINNQRKAFLDMLAWSEGTDNGRQKTRNHGYDVIVGGELFTDYSDHPRKLVTLNPKLKSTGAGRYQLLSRWWDAYRKQLGLKDFSPKSQDAVALQQIKERGALPMIDRGDIRQAIDRCSNIWASLPGAGYGQFEHKADSLIAKFKEAGGTVREIDV”, which “soluble on expression in E. coli” value is on record?
Answer: soluble

Question: Which “soluble on expression in E. coli” value does the source give for “MVEKEIDYLCSQYGLKPTNLSKFTLKLNFPDPDLKYGFSGEDNSLYLPLYHELNVSSSLPGEMFCMVYIQLILDPDKVNSEYLADFFNNPLGLKIRKGWEARGFVLRPETRNSEEVQESQQTSALNNPALLSGKSGFSGISYPVTGETSSENGDSIYSICQGSDGMTYVLPDSASPVPEILSFPDLDLESLMHSKLYLPDLQVQLEILKIKALTKELISQLNIFECRLSTYPKSMSHIRRKLELIREAVKLANDSDYILELIRRGESKRLEFKSTLRMNLMTGKPDWNIQHAVLKTIVAYLNTDGGILLVGVSNDGEILGIKNDGFPNEDRFLLHFKQLIKQHIGLNYSPMIEYTLVPVNGKEVLEIACKKSDEAVFLKTDKNDEEFYIRTGPSSERLTGSKLIEYVNRRYNGKSDAAALEHHHHHH” here?
Answer: soluble

Question: For “MVEKMNEEVMDSKELQVGDVVTGSVTKVEEKQVLVNVGYKTDGVIPISELANVHIEKASDVVELDQTLELKIIKLEEDDLVLSKRAVDAEKAWVELQEKFTSGHVFDVIVKDIVNGGLVVDLGVRGFIPASLVEVHYVEDFTDYKGKTLAVKIVELDREKNRVILSHKAVVELELDSKKKEAISSLKEGDVVEGTVQRLTDFGAFVNVGGVDGLVHISQISHERVEQPSEVLEQGQKVKVKVLSVDADTQRISLSIKAAQPGPWENVAGEIKAGDIREGVVKRLVTFGAFVEILPGVEGLVHVSQIANRHVKNPNEVLEMGQEVKVKVLEVHVAEKRISLSIKEALEENNVTEDYSQYEPNADSATFQLSDIIGEQLKKLKKLEHHHHHH”, which “soluble on expression in E. coli” value is on record?
Answer: soluble
